# In US20260356937 (published 2026):
# B1: P2m (antibody, V domains shown)
# VH: QVQLVQSGAEVKKPGSSVKVSCKASGYTFTSYDISWVRQAPGQGLEWMGGIIPIFGTANYAQKFQGRVTITADESTSTAYMELSSLRSEDTAVYYCTAGIFLATAYWGQGTLVTVSS
# VL: DIQMTQSPSSMSASVGDRVTISCQASQDIQNYLNWYQQRPGQAPKLLIYDASTLETGVPSRFSGSGSGTYFTLTISSLQPEDVATYYCQQYENVPITFGQGTRLEIK
# B2: MK (antibody, V domains shown)
# VH: EVQLQQWGAGLLKPSETLSLTCAVYGGSFSGYYWSWIRQPPGKGLEWIGEINHAGSTNYNPSLKSRVTISVDTSKNQFSLKLSSVTAADTAVYYCARLPTRWVTTRYFDLWGRGTLVTVSS
# VL: ESVLTQPPSVSGAPGQRVTISCTGSSSNIGAGYDVHWYQQLPGTAPKLLIYGDSNRPSGVPDRFSVSKSGASASLAITGLQAEDEADYYCQSFDNSLSAYVFGGGTQLTVLG
# B3: huP2-G9 (antibody, V domains shown)
# VH: EVQLQESGPGLVKPSQTLSLTCTVSGSSITSGYYWNWIRQHPGKGLEWIGYLSYDGSNNYNPSLKNLVTISRDTSKNQFSLKLSSVTAADTAVYYCAREGAHYSGTLSWFAYWGQGTLVTVSS
# VL: DIQMTQSPSSLSASVGDRVTITCRASENIYSNLAWYQQKPGKSPKLLVYAATNLADGVPSRFSGSGSGTDYTLTISSLQPEDFATYYCQHFWDTPYTFGGGTKVEIK
# B4: huP2-C6 (antibody, V domains shown)
# VH: EVQLVQSGAEVKKPGASVKVSCKASGYTFTDYYIHWVRQAPGQGLEWMGYIYPDTGYSGYNQKFKGRVTMTVDKSTSTAYMELRSLRSDDTAVYYCTRRGDYSGVHFDYWGQGTTVTVSS
# VL: DIVLTQSPDSLAVSLGERATINCRASESVNNYGVGFLHWYQQKPGQPPKLLIYRASTLESGIPDRFSGSGSGTDFTLTISSLQAEDVAVYYCQHSYKDPPWTFGGGTKVEIK
# Experiments:
# ILT4 (CHO-S/ILT4 cells) [1] = molecular target: ILT4 (CHO-S/ILT4 cells) (human); test: FACS
# Chain of ILT4 (CHO-S/ILT4 cells) (human) (chain, as listed by the source): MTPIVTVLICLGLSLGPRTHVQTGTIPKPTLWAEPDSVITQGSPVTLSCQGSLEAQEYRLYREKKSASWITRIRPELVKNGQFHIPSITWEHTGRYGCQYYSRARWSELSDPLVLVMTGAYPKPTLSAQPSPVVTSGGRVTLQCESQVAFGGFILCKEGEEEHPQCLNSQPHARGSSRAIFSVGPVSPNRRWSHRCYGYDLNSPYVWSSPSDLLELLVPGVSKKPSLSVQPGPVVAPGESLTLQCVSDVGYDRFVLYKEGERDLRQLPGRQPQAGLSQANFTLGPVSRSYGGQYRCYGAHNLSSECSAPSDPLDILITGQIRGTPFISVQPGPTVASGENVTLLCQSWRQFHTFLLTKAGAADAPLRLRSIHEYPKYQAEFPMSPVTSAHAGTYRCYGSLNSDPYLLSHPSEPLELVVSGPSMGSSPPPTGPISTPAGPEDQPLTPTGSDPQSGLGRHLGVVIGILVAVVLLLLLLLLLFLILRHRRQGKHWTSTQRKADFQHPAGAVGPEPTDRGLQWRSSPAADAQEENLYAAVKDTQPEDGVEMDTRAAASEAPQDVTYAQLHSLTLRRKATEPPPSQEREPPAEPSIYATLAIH
# ILT4 (CHO-S/ILT4 cells) [2] = molecular target: ILT4 (CHO-S/ILT4 cells) (human); test: FACS, assay 3
# ILT4 (CHO-S/ILT4 cells) [3] = molecular target: ILT4 (CHO-S/ILT4 cells) (human); test: FACS, assay 4
# ILT4 (CHO-S/ILT4 cells) [4] = molecular target: ILT4 (CHO-S/ILT4 cells) (human); test: FACS, assay 2
Binder,EC50 (ILT4 (CHO-S/ILT4 cells) [1]),EC50 (ILT4 (CHO-S/ILT4 cells) [2]),EC50 (ILT4 (CHO-S/ILT4 cells) [3]),EC50 (ILT4 (CHO-S/ILT4 cells) [4])
B1,0.0163 µg/mL,–,–,–
B2,–,0.301 µg/mL,0.0139 µg/mL,0.0415 µg/mL
B3,0.045 µg/mL,–,–,–
B4,0.0368 µg/mL,–,–,–
